The text below walks through data of article PMC11602657, “Nap1 and Kap114 co-chaperone H2A-H2B and facilitate targeted histone release in the nucleus” (The Journal of Cell Biology, 2024).

The target in data set [1] is T1, MBP-Kap114 DDAA (D928A/D929A) (S. cerevisiae, UniProt P53067 1-1004, D928A | D929A).
T1 construct: Kap114, S. cerevisiae, h19loop mutant; source: E. coli BL21 Gold, purified; not shown: MBP, N-terminal, kept
T1 sequence (looked up): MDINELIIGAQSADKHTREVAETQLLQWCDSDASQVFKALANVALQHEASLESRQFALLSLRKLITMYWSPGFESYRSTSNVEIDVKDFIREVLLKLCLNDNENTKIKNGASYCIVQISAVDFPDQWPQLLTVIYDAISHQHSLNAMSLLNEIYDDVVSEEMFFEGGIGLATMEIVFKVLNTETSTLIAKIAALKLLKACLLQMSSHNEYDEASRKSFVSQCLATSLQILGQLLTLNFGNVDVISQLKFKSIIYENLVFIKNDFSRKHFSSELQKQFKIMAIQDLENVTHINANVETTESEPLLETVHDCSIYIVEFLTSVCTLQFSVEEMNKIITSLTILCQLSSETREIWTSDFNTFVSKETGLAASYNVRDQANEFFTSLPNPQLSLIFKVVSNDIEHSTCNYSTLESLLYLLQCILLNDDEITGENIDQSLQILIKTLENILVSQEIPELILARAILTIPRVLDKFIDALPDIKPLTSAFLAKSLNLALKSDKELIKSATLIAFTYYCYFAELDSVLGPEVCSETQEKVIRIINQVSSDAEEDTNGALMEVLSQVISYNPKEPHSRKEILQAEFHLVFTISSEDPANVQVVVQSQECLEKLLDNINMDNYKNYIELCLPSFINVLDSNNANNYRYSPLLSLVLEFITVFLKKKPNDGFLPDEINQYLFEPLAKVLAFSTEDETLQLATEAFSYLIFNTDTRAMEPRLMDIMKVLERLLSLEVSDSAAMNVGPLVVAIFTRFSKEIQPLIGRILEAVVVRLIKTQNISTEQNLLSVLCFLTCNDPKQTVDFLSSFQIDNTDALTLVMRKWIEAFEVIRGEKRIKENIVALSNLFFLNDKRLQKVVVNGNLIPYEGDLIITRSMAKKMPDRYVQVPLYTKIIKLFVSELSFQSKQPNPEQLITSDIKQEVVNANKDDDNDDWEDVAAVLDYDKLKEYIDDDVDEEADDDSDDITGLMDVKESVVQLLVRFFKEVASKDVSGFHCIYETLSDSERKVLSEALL
The data set is described as follows: pull-down; MBP-Kap114 (WT or mutant; or MBP alone) 1 µM immobilized on amylose resin, equimolar Nap1_(2) ± H2A-H2B (1 or 2 µM) ± Ran^GTP; Assay Buffer (20 mM HEPES pH 7.4, 150 mM NaCl, 2 mM MgCl2, 10% glycerol, 2 mM DTT), 30 min at 4°C; Coomassie-stained SDS-PAGE. The note with it: both partners purified.

The target of data set [2] is T2, MBP-Kap114 YDAA (Y939A/D942A) (S. cerevisiae, UniProt P53067 1-1004, Y939A | D942A).
T2 construct: Kap114, S. cerevisiae, h19loop mutant; source: E. coli BL21 Gold, purified; not shown: MBP, N-terminal, kept
T2 sequence (looked up): T1 sequence (looked up) with A928D, A929D, Y939A, D942A
The data set is described as above. The note with it: both partners purified.

The target of another data set is T3, Kap114 (S. cerevisiae, UniProt P53067 1-1004).
T3 construct: also called Sc Kap114; source: E. coli, expressed as GST-Kap114, purified (Glutathione Sepharose 4B, on-column TEV cleavage, SEC)
T3 sequence: T1 sequence (looked up) with A928D, A929D
The data set is described as follows: SEC-MALS; proteins alone or binary mixtures at the indicated molar ratios to 80 µM Kap114; Assay buffer without glycerol; Nap1 counted as dimer. The note with it: both partners purified. In general terms: Size exclusion chromatography separates by hydrodynamic size, large species first.

Data set [3] concerns the molecule itself. The description is as above.

One may read the stoichiometry N as a count of units in the complex or per binding partner.

Changes are numbered by the printed parent chain. In names and notes the source's numbering stands. Several values for one entry are separate records, joined by “and”; a condition that tells them apart may be missing. Equal entries are not always repeated.

B1: Nap1 FL (C200A, C249A, C272A) (natural protein, S. cerevisiae, UniProt P25293 1-417, looked up)
chain: MSDPIRTKPKSSMQIDNAPTPHNTPASVLNPSYLKNGNPVRAQAQEQDDKIGTINEEDILANQPLLLQSIQDRLGSLVGQDSGYVGGLPKNVKEKLLSLKTLQSELFEVEKEFQVEMFELENKFLQKYKPIWEQRSRIISGQEQPKPEQIAKGQEIVESLNETELLVDEEEKAQNDSEEEQVKGIPSFWLTALENLPIVADTITDRDAEVLEYLQDIGLEYLTDGRPGFKLLFRFDSSANPFFTNDILAKTYFYQKELGYSGDFIYDHAEGAEISWKDNAHNVTVDLEMRKQRNKTTKQVRTIEKITPIESFFNFFDPPKIQNEDQDEELEEDLEERLALDYSIGEQLKDKLIPRAVDWFTGAALEFEFEEDEEEADEDEDEEEDDDHGLEDDDGESAEEQDDFAGRPEQAPECKQS
notes: Nap1 (nucleosome assembly protein 1), S. cerevisiae, full length (FL), with C200A, C249A, C272A for specific labeling on 414C; pHAT4 vector, gift from Sheena D'Arcy; Counted as a dimer (Nap1_(2)) in all molar ratios; alone a mixture of dimers and tetramers; also called Nap1_(2); Nap1_(2) FL; source: E. coli BL21 gold, purified (Ni-NTA, TEV cleavage, HiTrap Q, Superdex S200)
As for B1, the binding result in data set [1] and in data set [2] was “binds” throughout. Further, the “stoichiometry N” value with Kap114 was 1; in data set [3] it was 2 and 4.
